# According to patent US8716237B2, “Methods for the treatment or prevention of hemorrhagic conditions” (University of Rochester, priority 2007, dated 2014):
# T1: tumor necrosis factor receptor-associated factor 6, Q9Y4K3
# T1 chain: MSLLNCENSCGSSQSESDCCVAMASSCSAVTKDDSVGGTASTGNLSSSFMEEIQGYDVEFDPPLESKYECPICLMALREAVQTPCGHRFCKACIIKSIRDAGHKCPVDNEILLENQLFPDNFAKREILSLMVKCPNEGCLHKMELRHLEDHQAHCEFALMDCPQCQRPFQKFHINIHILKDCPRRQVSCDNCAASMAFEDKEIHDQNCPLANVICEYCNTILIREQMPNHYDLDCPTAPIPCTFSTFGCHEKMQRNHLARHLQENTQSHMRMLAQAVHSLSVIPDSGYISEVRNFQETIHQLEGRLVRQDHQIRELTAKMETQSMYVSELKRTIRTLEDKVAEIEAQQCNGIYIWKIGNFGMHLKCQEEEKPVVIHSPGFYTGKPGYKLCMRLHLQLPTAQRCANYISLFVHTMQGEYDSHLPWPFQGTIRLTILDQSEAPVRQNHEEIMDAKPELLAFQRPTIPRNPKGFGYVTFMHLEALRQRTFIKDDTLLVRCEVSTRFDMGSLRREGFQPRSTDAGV
# T2: TRAF7, Q6Q0C0
# T2 chain: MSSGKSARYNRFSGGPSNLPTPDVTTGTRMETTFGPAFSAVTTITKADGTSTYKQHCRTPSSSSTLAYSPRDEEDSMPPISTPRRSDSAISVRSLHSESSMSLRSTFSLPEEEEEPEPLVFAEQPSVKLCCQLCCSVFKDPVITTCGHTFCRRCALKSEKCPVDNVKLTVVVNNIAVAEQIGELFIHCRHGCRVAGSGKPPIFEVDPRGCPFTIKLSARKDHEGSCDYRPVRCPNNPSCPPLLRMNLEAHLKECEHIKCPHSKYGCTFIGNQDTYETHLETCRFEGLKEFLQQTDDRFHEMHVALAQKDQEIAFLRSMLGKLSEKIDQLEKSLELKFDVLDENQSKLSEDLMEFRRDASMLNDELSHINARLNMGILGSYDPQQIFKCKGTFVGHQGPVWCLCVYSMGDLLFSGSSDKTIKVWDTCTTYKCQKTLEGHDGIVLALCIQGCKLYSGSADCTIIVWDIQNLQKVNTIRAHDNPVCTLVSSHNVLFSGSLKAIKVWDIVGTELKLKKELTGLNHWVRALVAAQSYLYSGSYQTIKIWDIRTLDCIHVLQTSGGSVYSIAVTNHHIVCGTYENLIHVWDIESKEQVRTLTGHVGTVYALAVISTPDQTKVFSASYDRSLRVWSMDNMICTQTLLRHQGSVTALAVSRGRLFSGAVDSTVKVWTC
# How the values were obtained:
# CYLD = CYLD expression up-regulation by bacterial agonists for TLR2
# Cyld−/− mice = test: Survival of Cyld−/− mice inoculated with S. pneumoniae after pretreatment; assay type: in vivo, mouse; details: wedelolactone 10 mg/kg intraperitoneally 2 hours before S.p. inoculation
# Protocol: (§1) For S. pneumoniae-induced lethal infections in wild type, Cyld^−/−, Mkk3^−/−, and PAI-1^−/− mice, anaesthetized mice were intratracheally inoculated with live S. pneumoniae, S. pneumoniae wild type or pneumolysin mutant lysate, or pneumolysin (“PLY”), at a concentration of 5×10^7CFU per mouse for live bacteria and bacterial lysate and 200 ng/mouse for PLY in all experiments unless otherwise indicated, and saline was inoculated as control. The mice were monitored for lethality every 2 hours for the first 12 hours and every 12 hours for 5 days thereafter. To assess the effect of perturbing p38 MAPK signaling on S. pneumoniae-induced lethality in Cyld^−/− mice, Cyld^−/− mice were pretreated with the p38 inhibitor SB203580 (10 mg/kg, intraperitoneally in Cyld^−/− mice) 2 hours before S. pneumoniae inoculation, and mice were then intratracheally inoculated with S. pneumoniae. To determine the effect of administration of exogenous PAI-1 on S. pneumoniae-induced lethality, mice were intratracheally administered with mouse rPAI-1 (12.5 μg/mouse) or saline as control, followed by S. pneumoniae and PLY inoculation 1 day after PAI-1 administration. For PAI-1 neutralization in Cyld^−/− mice, Cyld^−/− mice were intraperitoneally injected with α-PAI-1 mAb (25 μg/mouse for histological analysis and 50 μg/mouse for lethality) 2 hours before S. pneumoniae inoculation. Mouse IgG was used as control. […] Lung tissues were then subjected to histological analysis and total mRNA and protein extraction. In all Examples, saline was used as a control unless otherwise specified.
# To assess the effect of perturbing NF-κB signaling on S.p.-induced lethality in Cyld^−/− mice, Cyld^−/− mice were pretreated with the IKK inhibitor Wedelolactone (10 mg/kg, intraperitoneally) 2 hours before S.p. inoculation, and mice were then intratracheally inoculated with S.p.
# (§2) Differences in survival between wild-type, Cyld-deficient (“Cyld^−/−”), Mkk3-deficient (“Mkk3^−/−”), and PAI/−/−deficient (“PAI-1^−/−”) mice after saline, S. pneumoniae, S. pneumoniae lysate, and/or pneumolysin inoculation with or without SB203580, rPAI-1, or α-PAI-1 mAb were determined by Kaplan-Meier analysis. All tests were performed using SPSS14.0 software (SPSS Inc.). All in vivo survival rate data were evaluated by Log Lank test. All other in vivo and in vitro data were evaluated by Student t-test. Statistical significance was accepted at a value of p<0.05.
# Tlr4−/− mice = test: Survival of Tlr4-deficient mice after pneumolysin inoculation with or without rPAI-1 pre-administration; assay type: in vivo; details: intratracheal PLY with mouse rPAI-1 pre-administration
# Protocol: as §2
# To further determine whether exogenous rPAI-1 also reduces mortality rate in Tlr4^−/− mice, Tlr4^−/− mice were intratracheally inoculated with PLY with or without mouse rPAI-1 pre-administration, and viability was assessed.
# wild type mice [1] = test: Pathological and histological analysis of lungs (alveolar hemorrhage) of wild type mice; assay type: in vivo, mouse; details: wild type mice inoculated with rPAI-1
# Protocol: For S. pneumoniae-induced lethal infections in wild type, Cyld^−/−, Mkk3^−/−, and PAI-1^−/− mice, anaesthetized mice were intratracheally inoculated with live S. pneumoniae, S. pneumoniae wild type or pneumolysin mutant lysate, or pneumolysin (“PLY”), at a concentration of 5×10^7CFU per mouse for live bacteria and bacterial lysate and 200 ng/mouse for PLY in all experiments unless otherwise indicated, and saline was inoculated as control. The mice were monitored for lethality every 2 hours for the first 12 hours and every 12 hours for 5 days thereafter. To assess the effect of perturbing p38 MAPK signaling on S. pneumoniae-induced lethality in Cyld^−/− mice, Cyld^−/− mice were pretreated with the p38 inhibitor SB203580 (10 mg/kg, intraperitoneally in Cyld^−/− mice) 2 hours before S. pneumoniae inoculation, and mice were then intratracheally inoculated with S. pneumoniae. […]
# For histological analysis, dissected lungs were fixed with 10% buffered neutral formalin overnight with rocking followed by routine processing, embedded in paraffin, and sectioned at about 4 μm thickness. […] H&E-stained lung tissue slides were evaluated by light microscopy using Axiovert 40 CFL (Carl Zeiss), and images were recorded with an AxioCam MRC (Carl Zeiss).
# [2] = mouse, in vivo, 0.6 mg/kg
# Protocol: The efficacy of intratracheal administration of rPAI-1 was evaluated by assessing the presence and function of recombinant PAI-1 in mice. It was first determined whether exogenous PAI-1 is evenly distributed in the lungs of mice after intratracheal inoculation of recombinant stable PAI-1. Recombinant stable wild-type PAI-1 was first labeled with fluorescent dyes using an Alexa Flour 488 protein-labeling kit (Molecular Probes, Eugene, Oreg.) (Herbein & Wright, “Enhanced Clearance of Surfactant Protein D During LPS-induced Acute Inflammation in Rat Lung,” Am. J. Physiol. Lung Cell. Mol. Physiol. 281:L268-L277 (2001), which is hereby incorporated by reference in its entirety). Alexa dyes were selected because their magnitude of fluorescence is constant from pH 4 to 10 and they have a low level of photobleaching compared with similar fluorescent dyes used for protein labeling. […]
# To determine whether the exogenously inoculated rPAI-1 is also functional, the in vivo functional activity of intratracheally inoculated rPAI-1 was measured in lungs of mice using ELISA kits from Molecular Innovations. […]
# wild type mice [3] = test: Survival of wild type mice inoculated with S. pneumoniae D39 lysate or PLY after rPAI-1 pre-administration; assay type: in vivo, mouse; details: for mortality rate / lethality in mice inoculated with S. pneumoniae: rPAI-1 12.5 μg/mouse intratracheally 1 day before S. pneumoniae D39 lysate
# Protocol: as §1
# Differences in survival between wild-type, Cyld-deficient (“Cyld^−/−”), Mkk3-deficient (“Mkk3^−/−”), and PAI/−/−deficient (“PAI-1^−/−”) mice after saline, S. pneumoniae, S. pneumoniae lysate, and/or pneumolysin inoculation with or without SB203580, rPAI-1, or α-PAI-1 mAb were determined by Kaplan-Meier analysis. All tests were performed using SPSS14.0 software (SPSS Inc.). All in vivo survival rate data were evaluated by Log Lank test. All other in vivo and in vitro data were evaluated by Student t-test. […]
# [4] = target: T1, tumor necrosis factor …
# TRAF7, Q6Q0C0 = target: T2, TRAF7, Q6Q0C0
molecule,measurement,setting,value
Pam3CSK4,CYLD expression,CYLD,up-regulated
COc1cc(O)c2c(c1)oc(=O)c1c3cc(O)c(O)cc3oc21 [Wedelolactone],survival rate,Cyld−/− mice,did not greatly alter the survival rate
MALP-2,CYLD expression,CYLD,up-regulated
peptidoglycan,CYLD expression,CYLD,up-regulated
"rPAI-1: mouse recombinant plasminogen activator inhibitor-1, purchased from Calbiochem; Example 20 uses recombinant stable wild-type PAI-1 (protein, UniProt P22777 23-402, looked up) Plasminogen activator …: TLPLRESHTAHQATDFGVKVFQQVVQASKDRNVVFSPYGVSSVLAMLQMTTAGKTRRQIQDAMGFKVNEKGTAHALRQLSKELMGPWNKNEISTADAIFVQRDLELVQGFMPHFFKLFQTMVKQVDFSEVERARFIINDWVERHTKGMINDLLAKGAVDELTRLVLVNALYFSGQWKTPFLEASTHQRLFHKSDGSTVSVPMMAQSNKFNYTEFTTPDGLEYDVVELPYQRDTLSMFIAAPFEKDVHLSALTNILDAELIRQWKGNMTRLPRLLILPKFSLETEVDLRGPLEKLGMPDMFSATLADFTSLSDQEQLSVAQALQKVRIEVNESGTVASSSTAFVISARMAPTEMVIDRSFLFVVRHNPTETILFMGQVMEP",protection from lethal PLY challenge (viability),Tlr4−/− mice,fully protected mice from lethal challenge
same,PLY-induced alveolar hemorrhage,wild type mice [1],prevented
same,S. pneumoniae-induced alveolar (lung) hemorrhage,wild type mice [1],prevented
same,distribution of intratracheally inoculated rPAI-1 in the lungs,[2],widely distributed in the lungs
same,mortality rate / lethality in mice inoculated with S. pneumoniae,wild type mice [3],greatly reduced the mortality rate
same,mortality rate / lethality in mice inoculated with S. pneumoniae,wild type mice [3]; listed as recombinant PAI-1,protected mice from S.p.-induced lethality
same,mortality rate in mice inoculated with PLY,wild type mice [3]; rPAI-1 12.5 μg/mouse intratracheally 1 day before pneumolysin,greatly reduced the mortality rate
deubiquitinating enzyme CYLD (protein) MSSGLWSQEKVTSPYWEERIFYLLLQECSVTDKQTQKLLKVPKGSIGQYIQDRSVGHSRIPSAKGKKNQIGLKILEQPHAVLFVDEKDVVEINEKFTELLLAITNCEERFSLFKNRNRLSKGLQIDVGCPVKVQLRSGEEKFPGVVRFRGPLLAERTVSGIFFGVELLEEGRGQGFTDGVYQGKQLFQCDEDCGVFVALDKLELIEDDDTALESDYAGPGDTMQVELPPLEINSRVSLKVGETIESGTVIFCDVLPGKESLGYFVGVDMDNPIGNWDGRFDGVQLCSFACVESTILLHINDIIPALSESVTQERRPPKLAFMSRGVGDKGSSSHNKPKATGSTSDPGNRNRSELFYTLNGSSVDSQPQSKSKNTWYIDEVAEDPAKSLTEISTDFDRSSPPLQPPPVNSLTTENRFHSLPFSLTKMPNTNGSIGHSPLSLSAQSVMEELNTAPVQESPPLAMPPGNSHGLEVGSLAEVKENPPFYGVIRWIGQPPGLNEVLAGLELEDECAGCTDGTFRGTRYFTCALKKALFVKLKSCRPDSRFASLQPVSNQIERCNSLAFGGYLSEVVEENTPPKMEKEGLEIMIGKKKGIQGHYNSCYLDSTLFCLFAFSSVLDTVLLRPKEKNDVEYYSETQELLRTEIVNPLRIYGYVCATKIMKLRKILEKVEAASGFTSEEKDPEEFLNILFHHILRVEPLLKIRSAGQKVQDCYFYQIFMEKNEKVGVPTIQQLLEWSFINSNLKFAEAPSCLIIQMPRFGKDFKLFKKIFPSLELNITDLLEDTPRQCRICGGLAMYECRECYDDPDISAGKIKQFCKTCNTQVHLHPKRLNHKYNPVSLPKDLPDWDWRHGCIPCQNMELFAVLCIETSHYVAFVKYGKDDSAWLFFDSMADRDGGQNGFNIPQVTPCPEVGEYLKMSLEDLHSLDSRRIQGCARRLLCDAYMCMYQSPTMSLYK,NTHi-induced inflammatory response,[4],CYLD inhibition of this inflammatory response was achieved via deubiquitinating TRAF6 and TRAF7
same,ubiquitination of TRAF6,[4],"Overexpression of WT CYLD reduced, whereas siRNA knock-down of CYLD enhanced, the ubiquitination of TRAF6 and TRAF7"
same,NTHi-induced inflammatory response,"TRAF7, Q6Q0C0",CYLD inhibition of this inflammatory response was achieved via deubiquitinating TRAF6 and TRAF7
same,ubiquitination of TRAF7,"TRAF7, Q6Q0C0","Overexpression of WT CYLD reduced, whereas siRNA knock-down of CYLD enhanced, the ubiquitination of TRAF6 and TRAF7"
